Data published in article PMC9757075 (Nucleic Acids Research, 2022).
Like-named read-outs stand apart in the source and are kept apart here. Each block holds one molecule with its values, some of them ahead of it.

Key:
[1] = biological target: PorX (wild type, non-phosphorylated) (Porphyromonas gingivalis W83) (UniProt B2RJJ3); experiment: SAXS
[2] = biological target: PorX (wild type, non-phosphorylated) (Porphyromonas gingivalis W83) (UniProt B2RJJ3); experiment: SAXS; remark: listed apart in the source
[3] = biological target: PorX; experiment: SEC-MALLS absolute molecular weight; conditions: reference: PorX with MgCl2 alone; sites D58
[4] = biological target: PorX; experiment: small-angle X-ray scattering in solution; conditions: reference: PorX without BeF3; sites D58
[5] = biological target: Selenomethionine variant of PorX, phosphorylated with acetyl phosphate (Porphyromonas gingivalis W83) (UniProt B2RJJ3); experiment: SEC-MALS
[6] = biological target: the molecule itself; experiment: crystal structure
[7] = biological target: the molecule itself; experiment: SEC
[8] = biological target: the molecule itself; experiment: SEC; remark: listed apart in the source

- stoichiometry N [1]: 2
- stoichiometry N [2]: 2
Molecule: PorX (wild type, non-phosphorylated) (from UniProt B2RJJ3 1-518) (natural protein)

Molecule: PorX PorX pre-incubated with AcP and MgCl2
- other: MALLS molecular weight [3]: gained; reference 70.2

Molecule: PorX PorX with BeF3 and MgCl2
- other: radius of gyration [4]: gained; reference 29.6

- stoichiometry N [5]: 2
Molecule: Selenomethionine variant of PorX, phosphorylated with acetyl phosphate (from UniProt B2RJJ3 1-518) (natural protein)

B1: PorX T272A, selenomethionine variant (T272A-pGpG crystal) (natural protein, Porphyromonas gingivalis W83)
chain: MEKNMRPYTVLWADDEIDLLKPHILFLEQKGYQVTPVLSGNDAIEALQNNDFDIVFLDENMPGIGGLDALQKIKELKPYTPVVMITKSEEEHIMTQAIGGKIADYLIKPVNPNQLLLSLKKNLQQHSIISETTNTNYRQEFVQLGAQMSGKLSFEEWKELYRRIVFWEIELEQADRQMGELLEMQKQEANRLFARFVTQNYREWIAKPDTRPTMSPDLFKQKVFPLLDNGEKVFFILIDNFRQDQWESVKSMLSEFYTFEEDMYLSILPTAAQYARNAIFSGLMPLQIEKMFPDLWVDEESEEGKNLNEEPMIRTLIERYRKHYSFSYNKVYETKFGERLLGQIRSLSQNQLNVIVLNFVDMMSHARTDSKMIRELASNEAAYRSLTKSWFKHSTTYNLFRSIAEMGYKVVLTTDHGTIQVKNPVKVIGDRSTNTNLRYKIGKNLDYNPKEVFEIKDPASVGLPHNNLSDKFIFTKEDDFFAYPNNYNYYVQYYRNTFQHGGISLEEMLVPVITMQPK
modifications: selenomethionine
- binding result [6]: binds

B2: PorX T272A incubated with acetyl phosphate (phosphorylated) (natural protein, Porphyromonas gingivalis W83)
chain: MEKNMRPYTVLWADDEIDLLKPHILFLEQKGYQVTPVLSGNDAIEALQNNDFDIVFLDENMPGIGGLDALQKIKELKPYTPVVMITKSEEEHIMTQAIGGKIADYLIKPVNPNQLLLSLKKNLQQHSIISETTNTNYRQEFVQLGAQMSGKLSFEEWKELYRRIVFWEIELEQADRQMGELLEMQKQEANRLFARFVTQNYREWIAKPDTRPTMSPDLFKQKVFPLLDNGEKVFFILIDNFRQDQWESVKSMLSEFYTFEEDMYLSILPTAAQYARNAIFSGLMPLQIEKMFPDLWVDEESEEGKNLNEEPMIRTLIERYRKHYSFSYNKVYETKFGERLLGQIRSLSQNQLNVIVLNFVDMMSHARTDSKMIRELASNEAAYRSLTKSWFKHSTTYNLFRSIAEMGYKVVLTTDHGTIQVKNPVKVIGDRSTNTNLRYKIGKNLDYNPKEVFEIKDPASVGLPHNNLSDKFIFTKEDDFFAYPNNYNYYVQYYRNTFQHGGISLEEMLVPVITMQPK
modifications: phosphorylated with acetyl phosphate (attenuated against the wild type)
- binding result [7]: binds

B3: PorX T272A (natural protein, Porphyromonas gingivalis W83)
chain: MEKNMRPYTVLWADDEIDLLKPHILFLEQKGYQVTPVLSGNDAIEALQNNDFDIVFLDENMPGIGGLDALQKIKELKPYTPVVMITKSEEEHIMTQAIGGKIADYLIKPVNPNQLLLSLKKNLQQHSIISETTNTNYRQEFVQLGAQMSGKLSFEEWKELYRRIVFWEIELEQADRQMGELLEMQKQEANRLFARFVTQNYREWIAKPDTRPTMSPDLFKQKVFPLLDNGEKVFFILIDNFRQDQWESVKSMLSEFYTFEEDMYLSILPTAAQYARNAIFSGLMPLQIEKMFPDLWVDEESEEGKNLNEEPMIRTLIERYRKHYSFSYNKVYETKFGERLLGQIRSLSQNQLNVIVLNFVDMMSHARTDSKMIRELASNEAAYRSLTKSWFKHSTTYNLFRSIAEMGYKVVLTTDHGTIQVKNPVKVIGDRSTNTNLRYKIGKNLDYNPKEVFEIKDPASVGLPHNNLSDKFIFTKEDDFFAYPNNYNYYVQYYRNTFQHGGISLEEMLVPVITMQPK
- binding result [8]: binds
